Results taken from article PMC7278938, “The MKK-Dependent Phosphorylation of p38α Is Augmented by Arginine Methylation on Arg49/Arg149 during Erythroid Differentiation” (International Journal of Molecular Sciences, 2020).

Assays:
[1] = biological target: T1, Flag-p38α wild type (UniProt Q16539 1-360); assay: cell-based or functional assay
[2] = biological target: Flag-p38α R49/149K mutant (UniProt Q16539 1-360, R49/149K | R49/149K); assay: cell-based or functional assay
[3] = biological target: T1, Flag-p38α wild type; assay: co-IP; Flag-p38α immunoprecipitated with anti-Flag antibodies and protein G agarose at 4 °C from lysates (1 mg) of p38α-knockdown K562 cells after AraC (1 μM, 5 h); lysis buffer 150 mM NaCl, 20 mM Tris pH 7.4, 0.2% Triton X-100; partners detected by Western blot and quantified; in Figure 6D with or without HA-PRMT1; details: partners not purified

T1 sequence (Q16539 whole entry): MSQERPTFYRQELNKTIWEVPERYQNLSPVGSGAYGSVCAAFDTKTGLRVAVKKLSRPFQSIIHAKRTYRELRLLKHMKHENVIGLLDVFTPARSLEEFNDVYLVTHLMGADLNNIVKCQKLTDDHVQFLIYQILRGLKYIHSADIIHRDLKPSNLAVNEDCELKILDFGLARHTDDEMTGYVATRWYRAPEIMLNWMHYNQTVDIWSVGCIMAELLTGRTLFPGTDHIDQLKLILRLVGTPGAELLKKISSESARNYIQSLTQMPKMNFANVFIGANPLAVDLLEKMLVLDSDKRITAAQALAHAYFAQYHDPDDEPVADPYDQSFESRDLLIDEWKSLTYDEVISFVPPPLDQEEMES
Sequence of Flag-p38α R49/149K mutant (Q16539 other isoform, or with tags, fused parts or gaps R49/149K | R49/149K | R49/149K | R49/149K | mutant): as the sequence (Q16539 whole entry) above, with R49K, R149K counted along it

- sorbitol (150 mM)-induced activation phosphorylation of Flag-p38α at 0.5 h (Western blot with anti-phospho-p38) [1]: ~4 fold
- sorbitol (150 mM)-induced activation phosphorylation of Flag-p38α at 0.5 h (Western blot with anti-phospho-p38) [2]: ~2 fold
- fold change of the interaction with HA-PRMT1 against without [3]: 1.7 fold
B1: MAPK kinase 3 (MKK3) (enzyme, human (endogenous in K562), UniProt P46734 1-347, looked up)
chain: MESPASSQPASMPQSKGKSKRKKDLRISCMSKPPAPNPTPPRNLDSRTFITIGDRNFEVEADDLVTISELGRGAYGVVEKVRHAQSGTIMAVKRIRATVNSQEQKRLLMDLDINMRTVDCFYTVTFYGALFREGDVWICMELMDTSLDKFYRKVLDKNMTIPEDILGEIAVSIVRALEHLHSKLSVIHRDVKPSNVLINKEGHVKMCDFGISGYLVDSVAKTMDAGCKPYMAPERINPELNQKGYNVKSDVWSLGITMIEMAILRFPYESWGTPFQQLKQVVEEPSPQLPADRFSPEFVDFTAQCLRKNPAERMSYLELMEHPFFTLHKTKKTDIAAFVKEILGEDS
notes: MKK3 (MAPK kinase 3), endogenous in human K562 cells, detected with anti-MKK3 (Cell Signaling #5674); source: endogenous, K562 lysate
